T1: human EpCAM on EpCAM positive human carcinoma cells (SW480, SK-OV-3) (human, UniProt P16422 24-314)
T1 sequence (looked up): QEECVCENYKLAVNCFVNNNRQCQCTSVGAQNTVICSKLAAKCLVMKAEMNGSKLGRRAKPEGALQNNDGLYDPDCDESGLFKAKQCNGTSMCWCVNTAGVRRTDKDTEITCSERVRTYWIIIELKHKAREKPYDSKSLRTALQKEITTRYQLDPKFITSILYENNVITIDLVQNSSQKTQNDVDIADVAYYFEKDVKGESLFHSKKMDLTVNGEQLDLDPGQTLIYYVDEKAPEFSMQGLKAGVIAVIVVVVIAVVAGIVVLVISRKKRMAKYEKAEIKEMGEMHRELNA

B1: Protease-treated (MMP-9 cleaved) AC1278, His(8)-aEpCAM-aCD3 cleaved fragment (bispecific antibody)
chain: HHHHHHHHELVMTQSPSSLTVTAGEKVTMSCKSSQSLLNSGNQKNYLTWYQQKPGQPPKLLIYWASTRESGVPDRFTGSGSGTDFTLTISSVQAEDLAVYYCQNDYSYPLTFGAGTKLEIKGGGGSGGGGSGGGGSEVQLLEQSGAELVRPGTSVKISCKASGYAFTNYWLGWVKQRPGHGLEWIGDIFPGSGNIHYNEKFKGKATLTADKSSSTAYMQLSSLTFEDSAVYFCARLRNWDEPMDYWGQGTTVTVSSGGGGSDVQLVQSGAEVKKPGASVKVSCKASGYTFTRYTMHWVRQAPGQGLEWIGYINPSRGYTNYADSVKGRFTITTDKSTSTAYMELSSLRSEDTATYYCARYYDDHYCLDYWGQGTTVTVSSGEGTSTGSGGSGGSGGADDIVLTQSPATLSLSPGERATLSCRASQSVSYMNWYQQKPGKAPKRWIYDTSKVASGVPARFSGSGSGTDYSLTINSLEAEDAATYYCQQWSSNPLTFGGGTKVEIKGTAEAASASGLSGRSDNHSPLG
B2: AC1357, non-cleavable anti-EpCAM×anti-CD3 ProTIA without the release segment (bispecific antibody)
chain: HHHHHHHHELVMTQSPSSLTVTAGEKVTMSCKSSQSLLNSGNQKNYLTWYQQKPGQPPKLLIYWASTRESGVPDRFTGSGSGTDFTLTISSVQAEDLAVYYCQNDYSYPLTFGAGTKLEIKGGGGSGGGGSGGGGSEVQLLEQSGAELVRPGTSVKISCKASGYAFTNYWLGWVKQRPGHGLEWIGDIFPGSGNIHYNEKFKGKATLTADKSSSTAYMQLSSLTFEDSAVYFCARLRNWDEPMDYWGQGTTVTVSSGGGGSDVQLVQSGAEVKKPGASVKVSCKASGYTFTRYTMHWVRQAPGQGLEWIGYINPSRGYTNYADSVKGRFTITTDKSTSTAYMELSSLRSEDTATYYCARYYDDHYCLDYWGQGTTVTVSSGEGTSTGSGGSGGSGGADDIVLTQSPATLSLSPGERATLSCRASQSVSYMNWYQQKPGKAPKRWIYDTSKVASGVPARFSGSGSGTDYSLTINSLEAEDAATYYCQQWSSNPLTFGGGTKVEIKGSPGSPAGSPTSTEEGTSESATPESGPGTSTEPSEGSAPGSPAGSPTSTEEGTSTEPSEGSAPGTSTEPSEGSAPGTSESATPESGPGSEPATSGSETPGSEPATSGSETPGSPAGSPTSTEEGTSESATPESGPGTSTEPSEGSAPGTSTEPSEGSAPGSPAGSPTSTEEGTSTEPSEGSAPGTSTEPSEGSAPGTSESATPESGPGTSTEPSEGSAPGTSESATPESGPGSEPATSGSETPGTSTEPSEGSAPGTSTEPSEGSAPGTSESATPESGPGTSESATPESGPGSPAGSPTSTEEGTSESATPESGPGSEPATSGSETPGTSESATPESGPGTSTEPSEGSAPGTSTEPSEGSAPGTSTEPSEGSAPGTSTEPSEGSAPGTSTEPSEGSAPGTSTEPSEGSAPGSPAGSPTSTEEGTSTEPSEGSAPGTSESATPESGPGSEPATSGSETPGTSESATPESGPGSEPATSGSETPGTSESATPESGPGTSTEPSEGSAPGTSESATPESGPGSPAGSPTSTEEGSPAGSPTSTEEGSPAGSPTSTEEGTSESATPESGPGTSTEPSEGSAPGTSESATPESGPGSEPATSGSETPGTSESATPESGPGSEPATSGSETPGTSESATPESGPGTSTEPSEGSAPGSPAGSPTSTEEGTSESATPESGPGSEPATSGSETPGTSESATPESGPGSPAGSPTSTEEGSPAGSPTSTEEGTSTEPSEGSAPGTSESATPESGPGTSESATPESGPGTSESATPESGPGSEPATSGSETPGSEPATSGSETPGSPAGSPTSTEEGTSTEPSEGSAPGTSTEPSEGSAPGSEPATSGSETPGTSESATPESGPGTSTEPSEGSAPG
B3: AC1278 His(8)-aEpCAM-aCD3-BSRS1-XTEN_AE864, protease-untreated (intact) anti-EpCAM×anti-CD3 ProTIA (bispecific antibody)
chain: HHHHHHHHELVMTQSPSSLTVTAGEKVTMSCKSSQSLLNSGNQKNYLTWYQQKPGQPPKLLIYWASTRESGVPDRFTGSGSGTDFTLTISSVQAEDLAVYYCQNDYSYPLTFGAGTKLEIKGGGGSGGGGSGGGGSEVQLLEQSGAELVRPGTSVKISCKASGYAFTNYWLGWVKQRPGHGLEWIGDIFPGSGNIHYNEKFKGKATLTADKSSSTAYMQLSSLTFEDSAVYFCARLRNWDEPMDYWGQGTTVTVSSGGGGSDVQLVQSGAEVKKPGASVKVSCKASGYTFTRYTMHWVRQAPGQGLEWIGYINPSRGYTNYADSVKGRFTITTDKSTSTAYMELSSLRSEDTATYYCARYYDDHYCLDYWGQGTTVTVSSGEGTSTGSGGSGGSGGADDIVLTQSPATLSLSPGERATLSCRASQSVSYMNWYQQKPGKAPKRWIYDTSKVASGVPARFSGSGSGTDYSLTINSLEAEDAATYYCQQWSSNPLTFGGGTKVEIKGTAEAASASGLSGRSDNHSPLGLAGSPGSPAGSPTSTEEGTSESATPESGPGTSTEPSEGSAPGSPAGSPTSTEEGTSTEPSEGSAPGTSTEPSEGSAPGTSESATPESGPGSEPATSGSETPGSEPATSGSETPGSPAGSPTSTEEGTSESATPESGPGTSTEPSEGSAPGTSTEPSEGSAPGSPAGSPTSTEEGTSTEPSEGSAPGTSTEPSEGSAPGTSESATPESGPGTSTEPSEGSAPGTSESATPESGPGSEPATSGSETPGTSTEPSEGSAPGTSTEPSEGSAPGTSESATPESGPGTSESATPESGPGSPAGSPTSTEEGTSESATPESGPGSEPATSGSETPGTSESATPESGPGTSTEPSEGSAPGTSTEPSEGSAPGTSTEPSEGSAPGTSTEPSEGSAPGTSTEPSEGSAPGTSTEPSEGSAPGSPAGSPTSTEEGTSTEPSEGSAPGTSESATPESGPGSEPATSGSETPGTSESATPESGPGSEPATSGSETPGTSESATPESGPGTSTEPSEGSAPGTSESATPESGPGSPAGSPTSTEEGSPAGSPTSTEEGSPAGSPTSTEEGTSESATPESGPGTSTEPSEGSAPGTSESATPESGPGSEPATSGSETPGTSESATPESGPGSEPATSGSETPGTSESATPESGPGTSTEPSEGSAPGSPAGSPTSTEEGTSESATPESGPGSEPATSGSETPGTSESATPESGPGSPAGSPTSTEEGSPAGSPTSTEEGTSTEPSEGSAPGTSESATPESGPGTSESATPESGPGTSESATPESGPGSEPATSGSETPGSEPATSGSETPGSPAGSPTSTEEGTSTEPSEGSAPGTSTEPSEGSAPGSEPATSGSETPGTSESATPESGPGTSTEPSEGSAPG

This assay addresses T1, human EpCAM on EpCAM positive human …. Briefly: cell-based or functional assay.
Regarding B1, the “EC50, LDH release cytotoxicity, PBMC:SW480 5:1” value was 8.9 pM.
Take B2: the “EC50, LDH release cytotoxicity, PBMC:SW480 5:1” value came to 3300 pM.
With B3 the figure was 288 pM.
